Laboratory results published in patent US20250230247A1 (DREN BIO, published 2025).
Numbering of substitutions follows the chain as printed.

B1: 2M24A.1.27 (Fab, V domains shown)
VH: QVQLVQSGAEVKKPGASVKVSCKSSGYTFTDYYIHWVRQAPGQGLEWMGWINPNSGDTNYAQKFQGRITMTRDTSISTAYLELSRLRSDDTAVFYCARNSGSYSFGYWGQGTLVTVSS
VL: DIQMTQSPSSVSASVGDRVTITCRASQGISSWLAWYQQKPGKAPKLLIFGASSLQSGVPSRFSGSGSGTDFTLTVSSLQPEDFATYYCQQAYSFAFTFGPGTKVDIE
notes: Fab; also called 2M24.1.27
B2: 2M24A.1.23 (Fab, V domains shown)
VH: B1 VH
VL: B1 VL with Q89A, A95P
notes: Fab; also called 2M24.1.23
B3: 2M24A.1.24 (Fab, V domains shown)
VH: B1 VH
VL: B1 VL with Q90A, A95P
notes: Fab; also called 2M24.1.24
B4: 2M24A.1.26 (Fab, V domains shown)
VH: B1 VH
VL: B1 VL with F94A, A95P
notes: Fab; also called 2M24.1.26
B5: 2M24A.1.25 (Fab, V domains shown)
VH: B1 VH
VL: B1 VL with S93A, A95P
notes: Fab; also called 2M24.1.25
B6: 2M24A.1.28 (Fab, V domains shown)
VH: B1 VH
VL: B1 VL with A95P, F96A
notes: Fab; also called 2M24.1.28
B7: 2M24A.1.29 (Fab, V domains shown)
VH: B1 VH
VL: B1 VL with A95P, T97A
notes: Fab; also called 2M24.1.29
B8: 2M24A.27 hFab H5 (Fab, V domains shown)
VH: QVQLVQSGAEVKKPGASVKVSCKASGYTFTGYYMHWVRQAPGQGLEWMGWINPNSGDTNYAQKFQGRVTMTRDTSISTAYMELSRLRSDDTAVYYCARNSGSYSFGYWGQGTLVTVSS
VL: B1 VL with A95P
notes: Fab; also called 2M24.H5
B9: 2M24A.26 hFab H4 (Fab, V domains shown)
VH: B1 VH with I34M, I68V, L81M, F94Y
VL: B1 VL with A95P
notes: Fab; also called 2M24.H4
B10: 2M24A.23 hFab H1 (Fab, V domains shown)
VH: B1 VH with I68V, L81M, F94Y
VL: B1 VL with A95P
notes: Fab; also called 2M24.H1
B11: 2M24A.24 hFab H2 (Fab, V domains shown)
VH: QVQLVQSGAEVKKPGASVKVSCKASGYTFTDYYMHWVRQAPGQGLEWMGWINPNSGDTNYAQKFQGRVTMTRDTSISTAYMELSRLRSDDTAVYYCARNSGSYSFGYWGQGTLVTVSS
VL: B1 VL with A95P
notes: Fab; also called 2M24.H2
B12: 2M24A.25 hFab H3 (Fab, V domains shown)
VH: B1 VH with S24A, I68V, L81M, F94Y
VL: B1 VL with A95P
notes: Fab; also called 2M24.H3
B13: 2M24 monospecific antibody (Example 18) (antibody, V domains shown)
VH: B1 VH
VL: B1 VL with A95P
notes: also called parental 2M24 antibody
B14: 2M24.119 monospecific antibody (antibody, V domains shown)
VH: B1 VH with S24A, I34M, S55E, Q65E, L81M, F94Y, S100T, S102A
VL: B1 VL with F49Y, S53D, V75I, S93G, A95P, E107K
B15: 2M24.116 monospecific antibody (antibody, V domains shown)
VH: B1 VH with S24A, I34M, S55E, G66E, L81M, F94Y, S100T, S102A
VL: B1 VL with F49Y, S53D, V75I, Q89H, A95P, E107K

Biological target: T1, human Dectin-1 (biosensor tests of Tables 3, 4A and 9; construct not stated) (human, UniProt Q9BXN2 66-247, limits assumed)
T1 construct: also called hDectin-1
T1 sequence (looked up): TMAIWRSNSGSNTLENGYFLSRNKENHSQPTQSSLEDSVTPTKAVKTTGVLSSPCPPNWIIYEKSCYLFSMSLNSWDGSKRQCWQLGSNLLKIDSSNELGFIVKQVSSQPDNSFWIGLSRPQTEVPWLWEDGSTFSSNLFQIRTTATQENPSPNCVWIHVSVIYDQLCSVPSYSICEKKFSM
Test: Octet
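Throughout, for delta: Single-point dissociation rate (koff) fit for each variant binding domain, expressed as change versus the parental clone.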

Binder | delta [%]
B1 | 19
B2 | 18
B3 | 36
B4 | 92
B5 | 9
B6 | 90
B7 | 23

Biological target: T1, human Dectin-1 (biosensor tests of …)
Test: Octet response; for X = 340: time not given here; for X = 470: time not given here

Binder | X = 340 | X = 470 | X = 290 | X = 350
B1 | 0.483 | 0.393 |  | 
B2 |  |  | 0.128 | 0.104
B3 |  |  | 0.115 | 0.073
B4 | 0.231 | 0.018 |  | 
B5 | 0.475 | 0.432 |  | 
B6 | 0.309 | 0.031 |  | 
B7 | 0.456 | 0.35 |  | 

Biological target: T1, human Dectin-1 (biosensor tests of …)
Test: Fab K dis, run 1

Binder | koff [s⁻¹]
B8 | 0.00624
B9 | 0.0053
B10 | 0.00841
B11 | 0.00826
B12 | 0.00765

Biological target: T1, human Dectin-1 (biosensor tests of …)
Test: Fab K dis, run 2

Binder | koff [s⁻¹]
B8 | 0.00195
B9 | 0.00102
B10 | 0.00143
B11 | 0.000616
B12 | 0.00132

Biological target: T1, human Dectin-1 (biosensor tests of …)
Test: Fab K dis, run 3

Binder | koff [s⁻¹]
B8 | 0.0032
B9 | 0.0016
B10 | 0.00204
B11 | 0.0015
B12 | 0.00214

Biological target: T1, human Dectin-1 (biosensor tests of …)
Test: Fab K dis, average of 3

Binder | koff [s⁻¹]
B8 | 0.0038
B9 | 0.00264
B10 | 0.00396
B11 | 0.00346
B12 | 0.0037

Biological target: T2, human Dectin-1 isoform A (human, UniProt Q9BXN2 1-247)
T2 construct: also called hDectin-1a; Dectin-1 on HEK-Blue hDectin-1a cells
T2 sequence: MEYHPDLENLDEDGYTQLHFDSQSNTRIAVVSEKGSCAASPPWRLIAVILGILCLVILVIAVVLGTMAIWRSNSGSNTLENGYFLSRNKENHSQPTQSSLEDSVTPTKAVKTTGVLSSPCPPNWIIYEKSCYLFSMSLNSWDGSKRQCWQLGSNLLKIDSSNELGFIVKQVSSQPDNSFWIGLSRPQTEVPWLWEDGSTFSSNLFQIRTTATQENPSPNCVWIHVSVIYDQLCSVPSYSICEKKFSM
Test: flow cytometry on HEK Blue Dectin 1a cells (MFI)

Binder | EC50 [nM]
B13 | 0.343
B14 | 0.393
B15 | 0.37
